In patent US20250084158A1 (ABL BIO, published 2025):

B1: 33C2/CD3-R3 (bispecific antibody, human IgG1, kappa, N297A)
heavy 1: not shown
heavy 2: QVQLVQSGAEVKKPGASVKVSCKASGYSFTGYAMNWVRQAPGQRLEWIGLINPYNGGAMYNQKFKGRATLTVDTSASTAYMELSSLRSEDTAVYYCARDYRYEGHLDYWGQGTLVTVSSASTKGPSVFPLAPSSKSTSGGTAALGCLVKDYFPEPVTVSWNSGALTSGVHTFPAVLQSSGLYSLSSVVTVPSSSLGTQTYICNVNHKPSNTKVDKKVEPKSCDKTHTCPPCPAPELLGGPSVFLFPPKPKDTLMISRTPEVTCVVVDVSHEDPEVKFNWYVDGVEVHNAKTKPREEQYASTYRVVSVLTVLHQDWLNGKEYKCKVSNKALPAPIEKTISKAKGQPREPQVCTLPPSREEMTKNQVSLSCAVKGFYPSDIAVEWESNGQPENNYKTTPPVLDSDGSFFLVSKLTVDKSRWQQGNVFSCSVMHEALHNHYTQKSLSLSPGK
light 1: EIVLTQSPATLSLSPGERATLSCSATSSVSYMHWYQQKPGQAPRRWIYDTSKLASGIPARFSGSGSGTSYTLTISSLEPEDFAVYYCQQWSSDSPTFGQGTKLEIKRTVAAPSVFIFPPSDEQLKSGTASVVCLLNNFYPREAKVQWKVDNALQSGNSQESVTEQDSKDSTYSLSSTLTLSKADYEKHKVYACEVTHQGLSSPVTKSFNRGEC
light 2: DIVMTQSPDSLAVSLGERATINCKSSQSLLNSRTRKNYLAWYQQKPGQPPKLLIYWASTRQSGVPDRFSGSGSGTDFTLTISSLQAEDVAVYYCTQSHTLRTFGGGTKVEIKPDIQNPDPAVYQLRDSKSSDKSVCLFTDFDSQTQVSQSKDSDVYITDKCVLDMRSMDFKSNSAVAWSQKSDFACANAFQNSIIPEDTFFPSPESS
notes: As 33C2/CD3-R2 but with the (G4S)3 linker; also called anti-CLL-1/anti-CD3 bispecific antibody with (G4S)3 linker
B2: 33C2/CD3-R2 (bispecific antibody, human IgG1, kappa, N297A)
heavy 1: not shown
heavy 2: B1 heavy 2
light 1: B1 light 1
light 2: B1 light 2
notes: WuXiBody format, 2+1: Heavy Chain-1 = CLL1 Fab heavy, linker, CD3 heavy (TCR constant region), Fc knob; Heavy Chain-2 = CLL1 Fab heavy, Fc hole; Two CLL1 light chains follow from the two CLL1 Fab heavy parts; also called anti-CLL-1/anti-CD3 bispecific antibody with (G4S)2 linker
B3: ch16C6(NA) (antibody, human IgG1, kappa, N297A, V domains shown)
VH: EVQLQQSGPELVKPGASVKISCKASGYSFTGYYMHWVKQSHVKSLEWIGHVNPYNGATSFNRNFKDKASLTVDKSSSTAYMELHSLTSEDSAVYYCGRSAYGYYERHFDYWGQGTTLTVSS
VL: DIVLTQSPASLAVSLGQRATISCKASQSVDYDADSYMNWYQQKPGQPPKLLIYAASNLQSGIPARFSGSGSGTDFTLNIHPVEEEDAATYYCQQSDRDPLTFGAGTKLELKR
notes: also called chimeric antibody of 16C6
B4: ch33C2(NA) (antibody, human IgG1, kappa, N297A, V domains shown)
VH: EVQLQQSGPELVKPGASMKISCKASGYSFTGYAMNWVKQSHGKNLEWIGLINPYNGGAMYNQKFKGKATLTVDKSTSTAYMELLSLTSEDSAVYYCARDYRYEGHLDYWGQGTTLTVSS
VL: QIVLTQSPVIMSASPGEKVTMTCSATSSVSYMHWYQQKSGTSPKRWIYDTSKLASGVPVRFSGSGSGTSYSLTISRMEAEDAATYYCQQWSSDSPTFGVGTKLELKR
notes: also called chimeric antibody of 33C2

How the values were obtained:
[1] = biological target: T1, human CLL-1 on cells (human, UniProt Q5QGZ9 1-265); test: cell-based or functional assay
T1 sequence (looked up): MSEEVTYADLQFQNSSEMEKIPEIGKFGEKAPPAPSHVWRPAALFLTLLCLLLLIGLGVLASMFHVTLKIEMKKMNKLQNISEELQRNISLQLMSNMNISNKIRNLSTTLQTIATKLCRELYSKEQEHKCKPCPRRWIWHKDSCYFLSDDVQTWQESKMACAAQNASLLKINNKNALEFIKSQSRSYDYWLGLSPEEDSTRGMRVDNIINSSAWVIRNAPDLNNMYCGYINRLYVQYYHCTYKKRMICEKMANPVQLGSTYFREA

[2] = biological target: T1, human CLL-1 on cells; test: cell-based or functional assay; remark: listed apart in the source
[3] = biological target: T1, human CLL-1 on cells; test: cell-based or functional assay; remark: listed apart in the source
[4] = biological target: T1, human CLL-1 on cells; test: FACS (PE-anti-human IgG), U937 cells
Protocol: (§1) To evaluate the tumor antigen binding property of the bispecific antibody of Example 3, the binding ability of CLL1 targeting portions of 33C2/CD3-R2 and 33C2/CD3-R3 to CLL1 expressed in mammalian cells were analyzed by using FACS.
(§2) Briefly, CLL1 positive cells (U937 and HL60) were incubated with 33C2/CD3-R2 and 33C2/CD3-R3 antibodies. After washing with a FACS buffer (1% BSA in PBS), the PE-anti-human IgG antibodies were added to each well and incubated at 4° C. for 60 min. The MFI (Median Fluorescence Intensity) of PE (phycoerythrin) was evaluated by FACS Calibur. BsAb mock/CD3, which has an anti-CD3 antigen-binding fragment at one arm, and no antigen-binding fragment at another arm, was used as a control group.

[5] = biological target: T1, human CLL-1 on cells; test: cell-based or functional assay; remark: listed apart in the source
[6] = biological target: T1, human CLL-1 on cells; test: FACS (PE-anti-human IgG), HL-60 cells
Protocol: as §1, §2

[7] = biological target: T1, human CLL-1 on cells; test: FACS, PL21 cells (2nd Ab only 2.82)
Protocol: (§3) To evaluate cell binding property, the chimeric antibody candidates of Example 1.2. were analyzed in CLL1 negative cells (HEK293E and Jurkat) and various CLL1 expressing cancer cells by using FACS.
(§4) Briefly, cells were incubated with antibodies at 4° C. for 1 hr. Firstly, the cells were washed with an assay buffer (1% BSA in PBS). Then, an anti-human IgG Fc conjugated with FITC (Fluorescein isothiocyanate) (Sigma, F9512) was added to each well and incubated at 4° C. for 1 hr. After wash, the MFI (Median Fluorescence Intensity) of FITC was measured by BD FACS Cal ibur (BD Biosciences).

[8] = biological target: T1, human CLL-1 on cells; test: FACS, OCI-AML2 cells (2nd Ab only 3.28)
Protocol: as §3, §4

[9] = biological target: T2, hFc-Human CLL1 (human); test: ELISA, coated antigen
T2 construct: Human CLL1 with N-terminal human IgG1 Fc, made in-house; also called hFc-huCLL1
Protocol: Antibody candidates of Example 1.2. were analyzed to compare the ligand binding activity by ELISA, using huCLL1-His and hFc-huCLL1 as ligands.
(§5) Briefly, the antigen (ligand) was coated overnight at 4VC. The antigen coated plate was blocked with 1% BSA in PBS at 4VC for 2 hr and incubated with antibodies at 4° C. for 2 hrs. To find out the EC₅₀ (nM) of each antibody, 4-fold serial dilutions were prepared from an antibody solution of a concentration of 50 nM to 0.2 pM and diluted antibodies were treated to each well, and the plate was washed with 1×PBST. Then Goat anti-Human IgG F(ab′)2 cross-adsorbed secondary antibody conjugated with HRP (horseradish peroxidase) (Thermo, 31414) was added to each well and incubated at 4° C. for 1 hr. After wash, a TMB (3,3′,5,5′-tetramethylbenzidine) substrate (Sigma, T0440) was added to each well and the OD at 450 nm was measured by an ELISA plate reader.

[10] = biological target: T3, hFc-Cynomolgus CLL1 (cynomolgus); test: ELISA, 50 and 100 ng/well coated antigen; stronger than reference 6E7
T3 construct: Cynomolgus CLL1 with N-terminal human IgG1 Fc, made in-house
T3 sequence (chain, as listed by the source limits assumed): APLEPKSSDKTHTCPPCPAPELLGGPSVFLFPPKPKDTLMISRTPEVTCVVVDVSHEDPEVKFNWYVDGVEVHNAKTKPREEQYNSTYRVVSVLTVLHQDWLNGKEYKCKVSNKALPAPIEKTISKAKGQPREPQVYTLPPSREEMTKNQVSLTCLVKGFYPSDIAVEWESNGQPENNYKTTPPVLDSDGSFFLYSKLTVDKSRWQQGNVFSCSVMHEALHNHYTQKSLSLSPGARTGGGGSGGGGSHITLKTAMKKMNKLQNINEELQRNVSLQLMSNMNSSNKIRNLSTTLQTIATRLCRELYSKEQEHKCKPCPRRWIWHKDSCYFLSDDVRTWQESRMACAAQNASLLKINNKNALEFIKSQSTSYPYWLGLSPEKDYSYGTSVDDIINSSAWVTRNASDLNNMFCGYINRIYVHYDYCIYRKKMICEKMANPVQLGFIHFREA
Protocol: as §5
Continuously, antibody candidates of Example 1.2. were analyzed to compare the ligand binding activities by ELISA, using 50 ng/well and 100 ng/well of hFc-Cynomolgus CLL1 as a ligandin the same manner as described above. Genentech's anti-CLL-1 antibody 6E7 was used as a reference.

[11] = biological target: T1, human CLL-1 on cells; test: FACS, EOL-1 cells (2nd Ab only 2.53)
Protocol: as §3, §4

[12] = biological target: T1, human CLL-1 on cells; test: FACS, U937 cells (2nd Ab only 4.77)
Protocol: as §3, §4

[13] = biological target: T1, human CLL-1 on cells; test: FACS, HL60 cells (2nd Ab only 5.09)
Protocol: as §3, §4

[14] = biological target: T1, human CLL-1 on cells; test: FACS, huCLL1_293E cells (2nd Ab only 5.05)
Protocol: as §3, §4

Binder	CD25 on CD4 T cells, U937 targets, EC50 [1] [pM]	CD25 on CD8 T cells, U937 targets, EC50 [1] [pM]	CD69 on CD4 T cells, U937 targets, EC50 [1] [pM]	CD69 on CD8 T cells, U937 targets, EC50 [1] [pM]	U937 cell lysis, EC50 [1] [pM]	T-cell activation (NFAT reporter effector cells) with HL-60, EC50 [2] [pM]	T-cell activation (NFAT reporter effector cells) with U937, EC50 [2] [pM]	specific lysis of HL-60, PBMC donor ABL06, EC50 [3] [pM]	specific lysis of HL-60, PBMC donor ABL09, EC50 [3] [pM]	specific lysis of HL-60, PBMC donor ABL10, EC50 [3] [pM]	specific lysis of HL-60, PBMC donor ABL15, EC50 [3] [pM]	specific lysis of HL-60, PBMC donor ABL16, EC50 [3] [pM]	specific lysis of HL-60, PBMC donor ABL17, EC50 [3] [pM]	specific lysis of HL-60, PBMC donor ABL18, EC50 [3] [pM]	specific lysis of HL-60, PBMC donor ABL19, EC50 [3] [pM]	specific lysis of U937, PBMC donor ABL06, EC50 [3] [pM]	specific lysis of U937, PBMC donor ABL09, EC50 [3] [pM]	specific lysis of U937, PBMC donor ABL10, EC50 [3] [pM]	specific lysis of U937, PBMC donor ABL15, EC50 [3] [pM]	specific lysis of U937, PBMC donor ABL16, EC50 [3] [pM]	other results
B1	1.23	1.1	0.61	~0.5	0.15	40	16	5.07	1.26	0.97	3.04	7.01	16.6	9.43	8.18	0.57	0.08	0.15	0.04	0.03	specific lysis of U937, PBMC donor ABL17, EC50 [3]: 1.69 pM; specific lysis of U937, PBMC donor ABL18, EC50 [3]: 3.05 pM; specific lysis of U937, PBMC donor ABL19, EC50 [3]: 0.39 pM; EC50 [4]: 250 pM; CD25 on CD4 T cells, HL60 targets, EC50 [5]: 1.94 pM; CD25 on CD8 T cells, HL60 targets, EC50 [5]: 2.09 pM; CD69 on CD4 T cells, HL60 targets, EC50 [5]: 0.8 pM; CD69 on CD8 T cells, HL60 targets, EC50 [5]: 0.57 pM; U937 cell lysis (so in the source); Table 21 is the HL60 table by paragraph 356), EC50 [5]: 0.97 pM; EC50 [6]: 90 pM
B2	0.39	0.3	0.21	0.14	0.05	30	16	4.42	1.27	0.86	3.16	5.14	5.85	3.97	9.09	0.54	0.13	0.05	0.16	0.05	specific lysis of U937, PBMC donor ABL17, EC50 [3]: 1.1 pM; specific lysis of U937, PBMC donor ABL18, EC50 [3]: 1.63 pM; specific lysis of U937, PBMC donor ABL19, EC50 [3]: 0.32 pM; EC50 [4]: 230 pM; CD25 on CD4 T cells, HL60 targets, EC50 [5]: 1.15 pM; CD25 on CD8 T cells, HL60 targets, EC50 [5]: 1.09 pM; CD69 on CD4 T cells, HL60 targets, EC50 [5]: 0.54 pM; CD69 on CD8 T cells, HL60 targets, EC50 [5]: 0.36 pM; U937 cell lysis (so in the source); Table 21 is the HL60 table by paragraph 356), EC50 [5]: 0.86 pM; EC50 [6]: 90 pM
B3	–	–	–	–	–	–	–	–	–	–	–	–	–	–	–	–	–	–	–	–	MFI(FL1-H) [7]: 38.6; MFI(FL1-H) [8]: 19.5; binding result [9]: binds; binding result [10]: binds; MFI(FL1-H) [11]: 3.73; MFI(FL1-H) [12]: 45.8; MFI(FL1-H) [13]: 18.5; MFI(FL1-H) [14]: 115
B4	–	–	–	–	–	–	–	–	–	–	–	–	–	–	–	–	–	–	–	–	MFI(FL1-H) [7]: 38.8; MFI(FL1-H) [8]: 19.3; binding result [9]: binds; binding result [10]: binds; MFI(FL1-H) [11]: 3.6; MFI(FL1-H) [12]: 48.1; MFI(FL1-H) [13]: 19.1; MFI(FL1-H) [14]: 77.7
